Assay results reported in IntAct's records for PubMed 19787799.

B1: Protein ERGIC-53 (Homo sapiens), P49257 (parent)
chain: MAGSRQRGLRARVRPLFCALLLSLGRFVRGDGVGGDPAVALPHRRFEYKYSFKGPHLVQSDGTVPFWAHAGNAIPSSDQIRVAPSLKSQRGSVWTKTKAAFENWEVEVTFRVTGRGRIGADGLAIWYAENQGLEGPVFGSADLWNGVGIFFDSFDNDGKKNNPAIVIIGNNGQIHYDHQNDGASQALASCQRDFRNKPYPVRAKITYYQNTLTVMINNGFTPDKNDYEFCAKVENMIIPAQGHFGISAATGGLADDHDVLSFLTFQLTEPGKEPPTPDKEISEKEKEKYQEEFEHFQQELDKKKEEFQKGHPDLQGQPAEEIFESVGDRELRQVFEGQNRIHLEIKQLNRQLDMILDEQRRYVSSLTEEISKRGAGMPGQHGQITQQELDTVVKTQHEILRQVNEMKNSMSETVRLVSGMQHPGSAGGVYETTQHFIDIKEHLHIVKRDIDNLVQRNMPSNEKPKCPELPPFPSCLSTVHFIIFVVVQTVLFIGYIMYRSQQEAAAKKFF
partner: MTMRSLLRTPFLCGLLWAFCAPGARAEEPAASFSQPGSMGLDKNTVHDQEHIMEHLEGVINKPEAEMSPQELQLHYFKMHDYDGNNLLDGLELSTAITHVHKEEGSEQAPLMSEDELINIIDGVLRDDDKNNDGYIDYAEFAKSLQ

Variants of: B1
Conditions: with mcfd2_human MCFD2, Q8NI22

effect of a mutation on the interaction | Variant
disrupting interaction strength | W67S
